From patent publication US7794719 (dated 2010) come the findings set out here.

The target in one test is Aβ1-40 fibers (human). As to the kind of experiment: SPR.
The target of the next test is Aβ1-42 fibers (human). Description: SPR.

B1: MS-R 3.6H5 x 3.6L1 Fab (antibody, V domains shown)
VH: QLVESGGGLVQPGGSLRLSCAASGFTFSSYAMSWVRQAPGKGLEWVSAISESGKTKYYADSVKGRFTISRDNSKNTLYLQMNSLRAEDTAVYYCARLTHYARYYRYFDVWGQGTLVTVSS
VL: DIVLTQSPATLSLSPGERATLSCRASQFIQRFYLAWYQQKPGQAPRLLIYGASSRATGVPARFSGSGSGTDFTLTISSLEPEDFAVYYCQQTYNYPPTFGQGTKVEIKR
For the molecule B1, the Kd is 1.25 nM with Aβ1-40 fibers and 1.04 nM with Aβ1-42 fibers.

B2: MS-R 3.6H5 x 3.6L2 Fab (antibody, V domains shown)
VH: QLVESGGGLVQPGGSLRLSCAASGFTFSSYAMSWVRQAPGKGLEWVSAISESGKTKYYADSVKGRFTISRDNSKNTLYLQMNSLRAEDTAVYYCARLTHYARYYRYFDVWGQGTLVTVSS
VL: DIVLTQSPATLSLSPGERATLSCRASQFLSRYYLAWYQQKPGQAPRLLIYGASSRATGVPARFSGSGSGTDFTLTISSLEPEDFAVYYCQQTYNYPPTFGQGTKVEIKR
For the molecule B2, the Kd in the test with Aβ1-40 fibers is 1.26 nM; in the test with Aβ1-42 fibers, 0.84 nM.

B3: MS-R 7.11H2 x 7.2L1(L1) Fab (antibody, V domains shown)
VH: QLVESGGGLVQPGGSLRLSCAASGFTFSSYAMSWVRQAPGKGLEWVSAINANGYKKYYADSVKGRFTISRDNSKNTLYLQMNSLRAEDTAVYYCARGKGNTHKPYGYVRYFDVWGQGTLVTVSS
VL: DIVLTQSPATLSLSPGERATLSCRASQYVDRTYLAWYQQKPGQAPRLLIYGASSRATGVPARFSGSGSGTDFTLTISSLEPEDFATYYCQQIYSFPHTFGQGTKVEIKR
With B3, the equilibrium dissociation constant (Kd) worked out at 1 nM in the test with Aβ1-40 fibers and 0.6 nM in the test with Aβ1-42 fibers.

B4: MS-R 7.11H1 x 7.11L1 Fab (antibody, V domains shown)
VH: QLVESGGGLVQPGGSLRLSCAASGFTFSSYAMSWVRQAPGKGLEWVSGINAAGFRTYYADSVKGRFTISRDNSKNTLYLQMNSLRAEDTAVYYCARGKGNTHKPYGYVRYFDVWGQGTLVTVSS
VL: DIVLTQSPATLSLSPGERATLSCRASQRILRIYLAWYQQKPGQAPRLLIYGASSRATGVPARFSGSGSGTDFTLTISSLEPEDFATYYCQQVYSPPHTFGQGTKVEIKR
In the case of B4, the Kd came to 0.41 nM with Aβ1-40 fibers and 0.47 nM with Aβ1-42 fibers.

B5: MS-R 7.11H2 x 7.9L1(L1) Fab (antibody, V domains shown)
VH: QLVESGGGLVQPGGSLRLSCAASGFTFSSYAMSWVRQAPGKGLEWVSAINANGYKKYYADSVKGRFTISRDNSKNTLYLQMNSLRAEDTAVYYCARGKGNTHKPYGYVRYFDVWGQGTLVTVSS
VL: DIVLTQSPATLSLSPGERATLSCRASQRLSPRYLAWYQQKPGQAPRLLIYGASSRATGVPARFSGSGSGTDFTLTISSLEPEDFATYYCLQIYNMPITFGQGTKVEIKR
Turning to B5, the figures for the Kd in the test with Aβ1-40 fibers and with Aβ1-42 fibers were 0.1 nM and 1 nM, respectively.

B6: MS-R 3.4H3 x 3.4L7 Fab (antibody, V domains shown)
VH: QLVESGGGLVQPGGSLRLSCAASGFTFSSYAMSWVRQAPGKGLEWVSVISQTGRKIYYADSVKGRFTISRDNSKNTLYLQMNSLRAEDTAVYYCARLTHYARYYRYFDVWGQGTLVTVSS
VL: DIVLTQSPATLSLSPGERATLSCRASQRLGRLYLAWYQQKPGQAPRLLIYGASSRATGVPARFSGSGSGTDFTLTISSLEPEDFATYYCQQTYDYPPTFGQGTKVEIKR
For the molecule B6, the Kd with Aβ1-40 fibers and with Aβ1-42 fibers was 0.92 nM each time.

B7: MS-R 3.4H3 x 3.4L9 Fab (antibody, V domains shown)
VH: QLVESGGGLVQPGGSLRLSCAASGFTFSSYAMSWVRQAPGKGLEWVSVISQTGRKIYYADSVKGRFTISRDNSKNTLYLQMNSLRAEDTAVYYCARLTHYARYYRYFDVWGQGTLVTVSS
VL: DIVLTQSPATLSLSPGERATLSCRASRRIHVYYLAWYQQKPGQAPRLLIYGASSRATGVPARFSGSGSGTDFTLTISSLEPEDFATYYCQQTYDYPPTFGQGTKVEIKR
In the case of B7, the dissociation constant Kd stood at 1.05 nM with Aβ1-40 fibers and 0.93 nM with Aβ1-42 fibers.

B8: MS-R 7.11H1 x 7.2L1 Fab (antibody, V domains shown)
VH: QLVESGGGLVQPGGSLRLSCAASGFTFSSYAMSWVRQAPGKGLEWVSGINAAGFRTYYADSVKGRFTISRDNSKNTLYLQMNSLRAEDTAVYYCARGKGNTHKPYGYVRYFDVWGQGTLVTVSS
VL: DIVLTQSPATLSLSPGERATLSCRASQYVDRTYLAWYQQKPGQAPRLLIYGASSRATGVPARFSGSGSGTDFTLTISSLEPEDFATYYCQQIYSFPHTFGQGTKVEIKR
As for B8, the dissociation constant (Kd) in the test with Aβ1-40 fibers was 1.75 nM; with Aβ1-42 fibers it was 1.39 nM.

B9: MS-R 7.2H2 x 7.2L1 Fab (antibody, V domains shown)
VH: QLVESGGGLVQPGGSLRLSCAASGFTFSSYAMSWVRQAPGKGLEWVSAINGTGMKKYYADSVKGRFTISRDNSKNTLYLQMNSLRAEDTAVYYCARGKGNTHKPYGYVRYFDVWGQGTLVTVSS
VL: DIVLTQSPATLSLSPGERATLSCRASQYVDRTYLAWYQQKPGQAPRLLIYGASSRATGVPARFSGSGSGTDFTLTISSLEPEDFATYYCQQIYSFPHTFGQGTKVEIKR
With B9, the Kd in the test with Aβ1-40 fibers came out at 1.29 nM; with Aβ1-42 fibers it was 1.43 nM.

B10: MS-R 3.4H1 x 3.4L9 Fab (antibody, V domains shown)
VH: QLVESGGGLVQPGGSLRLSCAASGFTFSSYAMSWVRQAPGKGLEWVSAISETSIRKYYADSVKGRFTISRDNSKNTLYLQMNSLRAEDTAVYYCARLTHYARYYRYFDVWGQGTLVTVSS
VL: DIVLTQSPATLSLSPGERATLSCRASRRIHVYYLAWYQQKPGQAPRLLIYGASSRATGVPARFSGSGSGTDFTLTISSLEPEDFATYYCQQTYDYPPTFGQGTKVEIKR
B10: the figures for the equilibrium dissociation constant (Kd) with Aβ1-40 fibers and in the test with Aβ1-42 fibers were 0.25 nM and 0.5 nM, respectively.

B11: MS-R 3.3H1 x 3.4L9 Fab (antibody, V domains shown)
VH: QLVESGGGLVQPGGSLRLSCAASGFTFSSYAMSWVRQAPGKGLEWVSVISEKSRFIYYADSVKGRFTISRDNSKNTLYLQMNSLRAEDTAVYYCARLTHYARYYRYFDVWGQGTLVTVSS
VL: DIVLTQSPATLSLSPGERATLSCRASRRIHVYYLAWYQQKPGQAPRLLIYGASSRATGVPARFSGSGSGTDFTLTISSLEPEDFATYYCQQTYDYPPTFGQGTKVEIKR
Take B11: the figures for the Kd with Aβ1-40 fibers and with Aβ1-42 fibers were 2.16 nM and 2.97 nM, respectively.

B12: MS-R 7.4H2 x 7.12L2 Fab (antibody, V domains shown)
VH: QLVESGGGLVQPGGSLRLSCAASGFTFSSYAMSWVRQAPGKGLEWVSAINYNGARIYYADSVKGRFTISRDNSKNTLYLQMNSLRAEDTAVYYCARGKGNTHKPYGYVRYFDVWGQGTLVTVSS
VL: DIVLTQSPATLSLSPGERATLSCRASQRFFYKYLAWYQQKPGQAPRLLISGSSNRATGVPARFSGSGSGTDFTLTISSLEPEDFAVYYCLQLYNIPNTFGQGTKVEIKR
As for B12, the dissociation constant (Kd) is 1.4 nM in the test with Aβ1-40 fibers and 1.8 nM with Aβ1-42 fibers.

B13: MS-R 7.9H2 x 7.12L2(L1+2) Fab (antibody, V domains shown)
VH: QLVESGGGLVQPGGSLRLSCAASGFTFSSYAMSWVRQAPGKGLEWVSAINADGNRKYYADSVKGRFTISRDNSKNTLYLQMNSLRAEDTAVYYCARGKGNTHKPYGYVRYFDVWGQGTLVTVSS
VL: DIVLTQSPATLSLSPGERATLSCRASQRFFYKYLAWYQQKPGQAPRLLISGSSNRATGVPARFSGSGSGTDFTLTISSLEPEDFAVYYCLQLYNIPNTFGQGTKVEIKR
Consider B13, for which the equilibrium dissociation constant (Kd) with Aβ1-40 fibers and with Aβ1-42 fibers was 0.4 nM in each case.

B14: MS-R 7.9H2 x 7.12L1 Fab (antibody, V domains shown)
VH: QLVESGGGLVQPGGSLRLSCAASGFTFSSYAMSWVRQAPGKGLEWVSAINADGNRKYYADSVKGRFTISRDNSKNTLYLQMNSLRAEDTAVYYCARGKGNTHKPYGYVRYFDVWGQGTLVTVSS
VL: DIVLTQSPATLSLSPGERATLSCRASQYVFRRYLAWYQQKPGQAPRLLISGSSNRATGVPARFSGSGSGTDFTLTISSLEPEDFAVYYCLQLYNIPNTFGQGTKVEIKR
For the molecule B14, the results for the Kd with Aβ1-40 fibers and with Aβ1-42 fibers were 1.2 nM and 1.1 nM, respectively.

One may read the Kd as a measure of binding affinity in units of concentration. Low values mean a tighter complex, high ones a looser complex.
